# Results reported in the nanobody polyreactivity screen of Harvey et al. (2022).
# Assay: yeast display, Sf9 membrane polyspecificity reagent, FACS + sequencing; frameworks hold sequencing errors
# Summary of the method: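 Genes from sorted yeast were amplified by colony PCR, read by MiSeq 2 × 250 sequencing and filtered on CDR length. These cells carried a synthetic nanobody library in Saccharomyces cerevisiae BJ5465 and were sorted by FACS into low and high (top ~1%) gates on anti-HA and streptavidin fluorescence. Polyreactivity is labelled according to the gate of origin.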
row,Sequence,polyreactivity (PSR sort gate)
1,QVQLVESGGGLVQAGGSLRLSCAASGGTFSYYAMGWYRQAPGKERELVAAITYSGDRTYYADSVKGRFTISRDNAKNTVFLQMNSLKPEDTAVYYCNAVRGSWYGYYYWGQGTQVTVSS,high polyreactivity
2,QVQLVESGGGLVQAGGSLRLSCAASGRIFTPYAMGWYRQAPGKERELVAVIRDGSTYYADSVKGRFTISRDNAKNTVYLQMNSLKPEDTAVYYCAVRHRYTRAYWGRDYWGQGTQVTVSS,low polyreactivity
3,QVQLVESGGGLVQAGGSLRLSCAASGRIFQYYAMGWYRQAPGKERELVAAITRSGGRTYYADSVKGRFTISRDNAKNTVYLQMYSLKPEDTAVYYCAASQRYSVIYYGFSEYDYWGQGTQVTVSS,high polyreactivity
4,QVQLEESGGGLVQAGGSLRLSCAASGFIVYYYAMGWYRQAPGKERELVAAISSGDRTYYADSVKGRFTISRDNAKNTVYLQMNSLKREDTAVYYCNALSRNTQLYDYWGQGTQVTVSS,high polyreactivity
5,QVQLVESGGGLVQAGGSLRLSCAASGSTFVRYAMGWYRQAPGKEREFVAAISKRGGSTYYADSVKGRFTISRDIAKNTVYLQMNSLKPEDTAVYYCATYLLRDAPGLHQVGYWGQGTQVTVSS,high polyreactivity
6,QVQLVESGGGLVQAGGSLRLTCAASGSILYYNAMGWYRQAPGKEREFVAAISDSGSSTYYADSVKGRFTISRDNAKNTVYLQMNSLKPEDTAVYYCNAYQGDKYDSWGQGTQVTVSS,low polyreactivity
7,QVHLVESGGGLVQAGGSLRLSCAASGSTLYWYAMGWYRQAPGKERELVARITVSGGSTSYADSVKGRFTISRDNAKNTVYLQMNSLKPEDTAVYYCAARRYWTGYYYWGQGTQVTVSS,high polyreactivity
8,QVQLVESGGGLVQAGGSLRLSCAASGGTFYHNVMGWYRQAPGKERELVAAIRYSGGRTYYADSVKGRFTLSRDNAKNTVYLQMNSLKPEDTAVYYCAVRSYYGPFGYWGQGTQVTVSS,high polyreactivity
9,QVQLVESGGGLVQAGGSLRLSCAASGSHFSSYVMGGYRQGPGKERELVAAISSIGGSTYYADSVKGRFTISRDNAKNTVYLQMNSLKPEDTAVYYCAAEPPGSTYEGGYWGQGTQVTVSS,low polyreactivity
10,QVHLVESGGGLVQAGGSLRLSCAASGSIFYDYAMVWYIQAPGKERELVAAINSGDSTYYADSVKGRFTISRDNAKNTVYLQMNSLKPEDTAVYFCAATYFSPYIEYDYWGQGTQVTVSS,low polyreactivity
11,QVQLVESGGGLVQAGGSLRLSCAASGYTFFYMGWYRQAPGKEREFVAVITYSGGSTYYADSVKGRFTISRDNAKNTVYLQMNSLKPEDTAVYYCAAAVWHYGRPGYLDSGYDYWGQGTQVTVSS,low polyreactivity
12,QVQLVESGGGLVQAGGSLRLSCAASGRTLFTIAMGWYRQAPGKERELLAAISIGGTTYYADSVKGRFTISRDYAKNTVYLQMNSLKPEDTAVYYCNKVRRFHSEYGYWGQGTQVTVSS,high polyreactivity
13,QVQLQESGGGLEQAGGSLRLTCAASGNISVTGFMGWYRQEPGKEREIVASIGIGGTTYYADSVKGRFYISRDNAKNTVYLQMNSLKPEDTAVYYCADRYLYYAYSYWCQGTQVTVSS,low polyreactivity
14,QVQLVESGGGVVQAGGSLRLSCAASGRTFMVNAMGWYRQAPGKERELVAAISQRGGSTDYADSVKGRFTISRDNAKNTVYLQMNSLIPEDTAVYYCAADSLRGSAPTYYSTLEYWGQGTQVTVSS,low polyreactivity
15,QVQLVESGGGLVQAGGSLRLSCAASGSIFRDNAMGWYRQAPGKERELVASIRSSGGRTYYADSVKGRFTISRDNANNTVYLQMNSLKPEDTAVYYCAADWIYAPWYYQESVEYYYWGQGTQVTVSS,low polyreactivity
16,KVQLVESGGGLVQAGGSLRLSCAASGSIFHNYDMGWYRQAPGKERELVADISRGGDTNYADSVKGRFTISRDNAKNTVYLEMKSLKPEDTAVYYCNATYWILDFPWWRETFDYWGQGTQVTVSS,low polyreactivity

row,Sequence,polyreactivity (PSR sort gate)
1,QVQLVESGGGLVQAGGSLRLICAASGILVYNAMGWYRQAPGKERELVAAISARGGRKYYADSVKGRFTISRDNAKNTVYLQMYSLKTEDTAVYYCATLETSGVNYWGQGTQVTVSS,high polyreactivity
2,QVQRVESGGGLVQAGCSLLLSCASSGNIFTRNAMGGYRHAPGKEREWVAAISTSGGRTYYADSVKGRFTISRDNAKNTVYLQMYSLKPEDTAVYYCAADYLSGTELYYWGQGTQVTVSS,high polyreactivity
3,QVQLVESGGGLVQAGGSLRLSCAASGSIFNYYTMGWYRQAPGKERELVAVITWSDDSTYYADSVKGRFTISRDNAKNTVYLQMNSLKPEDTAVYYCNARSWGWYRIAYGYWGQGTQVTVSS,low polyreactivity
4,QVQLVESGGGLVQAGGSLRLSCTASGFTFVYYAMGWYRQAPGKERELVASISRSGGSTYYADSVKGRFTISRDNAKNTVYLQMNSLKPEDTAVYYCNARYGRTALLDYWGQGTQVTVSS,high polyreactivity
5,QVQLVESGGGLVQAGGSLRLSCAASGSTFLFYAMGWYRQAPGKEREFVAAITWSGGSTYYADSVKGRFTISRDNAKNTVYLQMNSLKPEDTAVYYCNGYYVPTTGREFYFAFYYWGQGTQVTVSS,low polyreactivity
6,QVQLVESGGGLVQAGGSLRLSCAASGSTSLYYAMGWYRPAPGKEREFVAAITWSGGSTYYADSVKGRFTISRDNAKNTVYLQMNSLKPEDTAVYYCAARSYGYSAGYYWGQGTQVTVSS,high polyreactivity
7,QVQLVESGGGLVQAGGSLRLSCAASGFTFDYYAMGWYRQAPGKERELVAAISRRGTSTYYADSVKGRFTISRDNAKNTVYLQMYSLKPEDTAVYYCNAVTSSFYNRDSDYWGQGTQVTVSS,high polyreactivity
8,QVQLVESGGGLVQAGGSLRLSCAASGSIFGYYAMGWYRQAPGKERELVAAISSSGASTYYADSVKGRFTISRDNAKNTVYLQMNSLKPEDTAVNYCNAARRYPTRGGYWGQGTQVTVSS,high polyreactivity
9,QVQLVESGGGLVQAGGSLRLSCAASGSTFSIYAMGGDRQAPGKERELVAAITRRSGSTYYADSVKGRFTISRDNAKNTVSLQMNSLKPEDTAVYYCAADTWRTDYTSSYYKNRDSWGQGTQVTVSS,high polyreactivity
10,QVQLVESGGGLVQAGGSLRLSCAASGSTFRYYDMGWYRQAPGKERELVAVISKSGARTYYADSVKGRFTISRDNAKNTVYLQMNSLKPEDTAVYYCIAVFKLDSQYAMGYWGQGTQLTVSS,high polyreactivity
11,QVQLVETGGGLVHAGGSLRLSCAASGSTISLYARGWYRQAPVKERELVASITWGGGSTYADSVKGRFTISRDNAKNTVYLQLNRLKPEDTAVYYCARKYRYRVLYDFAYDHWGQGTQVTVSS,low polyreactivity
12,QVQLVESGGGLVQAGGSLRLSCAASGSTFYSYAMGWYRQAPGKERELVAAITKGGGSTYYADSVKGRFTISRDNAKNTVYLQMNSLIPEDTAVYYCAAPGLYWYYTRSVYDYWGQGTQVTVSS,high polyreactivity
13,QVQLVESGGGLVQAGGSLRLSCAASGRTFLWYAKGWYRQAPGKEMELVATITSGDSTIYADSVKGRFTISRDNEKNTVYLQMNSLKPVDTAVYYCAAGYYYYLRDHDYWGQGTQVTVSS,low polyreactivity
14,QVQLVESGGGLVHAGGSLRLSCAASGYTFPLYAMGWYRQAPGKERELVAGINWRGGSTYYADSVKCRFTISRDNAKNTVYLQIKSLKPEDTAVYYCAADFSRYYTGGYDYWGQGTQVTVSS,low polyreactivity
15,QVQLVESGGGLVQAGGSLRLSCAASGFTFSTYTMGWYRPAPGKVRELVAAITWTGGRKYYADSVKGRFTISRDNAKNTVFLQMNSLKPEDTAVYYCNRAGYTGAEVYGYDYWGQGTQVTVSS,high polyreactivity
16,QVQLVESGGGLVQAGGSLRLSCAASGFIFEPYAMGWYRQAPGKERELVAAISSGGSTYADSVKGRFTISRDNAKNTVYLQMISLKPEDTAVYYCAADSYYSVWGFYYWGQGTQVTVSS,low polyreactivity
